The numbers were not newly measured in paper PMC12635586, which cites them from elsewhere.

In general, Kd refers to the concentration at which binding is half-saturated.

For one data set, the target named is GFRAL (Homo sapiens) (UniProt Q6UXV0).
GFRAL (Homo sapiens), sequence (Q6UXV0 19-351): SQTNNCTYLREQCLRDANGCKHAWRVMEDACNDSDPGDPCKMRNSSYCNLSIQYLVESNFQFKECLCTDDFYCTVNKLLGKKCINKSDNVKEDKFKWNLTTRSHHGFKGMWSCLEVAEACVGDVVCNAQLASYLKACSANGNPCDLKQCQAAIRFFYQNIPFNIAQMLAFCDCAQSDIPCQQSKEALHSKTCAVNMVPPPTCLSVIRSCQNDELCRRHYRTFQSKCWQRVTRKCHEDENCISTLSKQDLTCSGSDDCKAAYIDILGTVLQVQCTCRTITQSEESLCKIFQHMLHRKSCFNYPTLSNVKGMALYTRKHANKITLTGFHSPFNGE

Clazakizumab, sequence (main, as listed by the source, chain 1 of 2): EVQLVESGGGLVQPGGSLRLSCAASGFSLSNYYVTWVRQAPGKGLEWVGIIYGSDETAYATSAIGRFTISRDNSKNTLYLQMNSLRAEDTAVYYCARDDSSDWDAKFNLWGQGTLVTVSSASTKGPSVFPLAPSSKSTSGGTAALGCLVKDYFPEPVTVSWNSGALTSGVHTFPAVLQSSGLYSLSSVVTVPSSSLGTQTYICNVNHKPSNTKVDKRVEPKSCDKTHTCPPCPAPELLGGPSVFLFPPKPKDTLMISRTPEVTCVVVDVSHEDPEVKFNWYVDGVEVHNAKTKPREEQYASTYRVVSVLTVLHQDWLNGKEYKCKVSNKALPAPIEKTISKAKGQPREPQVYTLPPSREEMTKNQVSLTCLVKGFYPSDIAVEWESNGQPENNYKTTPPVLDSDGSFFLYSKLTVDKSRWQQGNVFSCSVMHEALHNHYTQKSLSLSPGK
Clazakizumab, sequence (partner, as listed by the source, chain 2 of 2): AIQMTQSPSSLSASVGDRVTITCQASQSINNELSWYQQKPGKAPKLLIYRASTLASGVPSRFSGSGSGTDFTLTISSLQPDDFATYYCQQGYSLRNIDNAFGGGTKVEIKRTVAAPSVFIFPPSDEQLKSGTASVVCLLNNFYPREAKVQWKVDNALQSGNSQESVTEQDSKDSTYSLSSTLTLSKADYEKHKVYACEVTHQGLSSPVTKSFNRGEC
Growth differentiation factor-15, sequence (Q99988 195-308): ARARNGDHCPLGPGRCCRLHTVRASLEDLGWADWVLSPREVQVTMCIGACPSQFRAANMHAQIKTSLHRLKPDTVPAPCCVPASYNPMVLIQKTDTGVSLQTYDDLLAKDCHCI
Interleukin-6, sequence (P05231 30-212): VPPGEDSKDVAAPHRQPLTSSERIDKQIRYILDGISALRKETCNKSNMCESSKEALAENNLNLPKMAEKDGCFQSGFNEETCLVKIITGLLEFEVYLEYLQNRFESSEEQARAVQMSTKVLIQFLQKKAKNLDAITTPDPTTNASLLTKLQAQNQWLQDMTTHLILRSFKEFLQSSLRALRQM

“Growth differentiation factor-15 (from UniProt Q99988)”: the Kd in the data set with GFRAL (Homo sapiens) was 8 nM.

For the substance Interleukin-6 (from UniProt P05231), in the data set with Clazakizumab, the dissociation constant Kd is 0.004 nM.
